Measured values as given in paper PMC5426085 (Frontiers in Microbiology, 2017).

Tests used:
[1] = target: FtsZ (SaFtsZ) (Staphylococcus aureus, UniProt P0A031); assay: GTPase assay (phosphate release), […]° light scattering polymerization, TEM, far-UV CD with recombinant purified FtsZ; assay type: biochemical; conditions: read-out: % inhibition of GTPase at 8 μg/mL (~15 μM)
[2] = target: the molecule itself; assay: 90° light scattering of polymerization; FtsZ 6 μM in 20 mM Tris pH 7.4, 0.01% Triton X-100; started with 20 mM KCl, 5 mM MgCl2, 1 mM GTP; 37°C; 600 nm; without and with compound 1 (1 to 6 μg/mL); self-assembly into polymers

CN1/C(=C/c2cc(/C=C/c3ccc(O)cc3)[n+](C)c3ccccc23)Sc2ccccc21 [compound 1, 2-((E)-4-hydroxystyryl)-1-methyl-4-((Z)-(3-methylbenzo[d]thiazol-2(3H)-ylidene)methyl)quinolin-1-ium iodide]
inhibition at 8 µg/mL [1]: 58%

B1: Staphylococcus aureus FtsZ (natural protein, UniProt P0A031 1-390, looked up)
chain: MLEFEQGFNHLATLKVIGVGGGGNNAVNRMIDHGMNNVEFIAINTDGQALNLSKAESKIQIGEKLTRGLGAGANPEIGKKAAEESREQIEDAIQGADMVFVTSGMGGGTGTGAAPVVAKIAKEMGALTVGVVTRPFSFEGRKRQTQAAAGVEAMKAAVDTLIVIPNDRLLDIVDKSTPMMEAFKEADNVLRQGVQGISDLIAVSGEVNLDFADVKTIMSNQGSALMGIGVSSGENRAVEAAKKAISSPLLETSIVGAQGVLMNITGGESLSLFEAQEAADIVQDAADEDVNMIFGTVINPELQDEIVVTVIATGFDDKPTSHGRKSGSTGFGTSVNTSSNATSKDESFTSNSSNAQATDSVSERTHTTKEDDIPSFIRNREERRSRRTRR
notes: cell division protein FtsZ, Staphylococcus aureus; also called SaFtsZ; filamenting temperature-sensitive mutant Z; source: recombinant; cloned, overexpressed, and purified as described previously (Sun et al., 2014; Li et al., 2015)
binding result [2]: binds

B2: E. coli FtsZ (natural protein, UniProt P0A9A6 1-383, looked up)
chain: MFEPMELTNDAVIKVIGVGGGGGNAVEHMVRERIEGVEFFAVNTDAQALRKTAVGQTIQIGSGITKGLGAGANPEVGRNAADEDRDALRAALEGADMVFIAAGMGGGTGTGAAPVVAEVAKDLGILTVAVVTKPFNFEGKKRMAFAEQGITELSKHVDSLITIPNDKLLKVLGRGISLLDAFGAANDVLKGAVQGIAELITRPGLMNVDFADVRTVMSEMGYAMMGSGVASGEDRAEEAAEMAISSPLLEDIDLSGARGVLVNITAGFDLRLDEFETVGNTIRAFASDNATVVIGTSLDPDMNDELRVTVVATGIGMDKRPEITLVTNKQVQQPVMDRYQQHGMAPLTQEQKPVAKVVNDNAPQTAKEPDYLDIPAFLRKQAD
notes: cell division protein FtsZ, Escherichia coli; also called EcFtsZ; source: recombinant; cloned, overexpressed, and purified as described previously (Sun et al., 2014; Li et al., 2015)
binding result [2]: binds
